The text below walks through data of US20060210984A1.

Experiment [1] has as its target IL-1b (human) (UniProt P01584). Kind of experiment: sandwich microarray in flow cell, chemiluminescence, cytokine 1 ng/ml; Chip 1.
The target in experiment [2] is IL-1b (human) (UniProt P01584). Kind of experiment: sandwich microarray in flow cell, chemiluminescence, cytokine 1 ng/ml; Chip 2.
For experiment [3], the target named is IL-1b (human) (UniProt P01584). The experiment in a line: sandwich microarray in flow cell, chemiluminescence, cytokine 1 ng/ml; Chip 3.
For experiment [4], the target named is IL-1b (human) (UniProt P01584). Kind of experiment: sandwich microarray in flow cell, chemiluminescence, cytokine 1 ng/ml; Chip 4.
The target in experiment [5] is IL-1b (human) (UniProt P01584). Kind of experiment: sandwich microarray in flow cell, chemiluminescence, cytokine 1 ng/ml; Chip 5.
The target of experiment [6] is IL-1b (human) (UniProt P01584). Kind of experiment: sandwich microarray in flow cell, chemiluminescence, cytokine 1 ng/ml; AVG of Chips 1-5.
Experiment [7] has as its target IL-1b (human) (UniProt P01584). The experiment in a line: sandwich microarray in flow cell, chemiluminescence, cytokine 1 ng/ml, divided by chip-specific PNA calibration factor; Chip 1.
The target of experiment [8] is IL-1b (human) (UniProt P01584). The experiment in a line: sandwich microarray in flow cell, chemiluminescence, cytokine 1 ng/ml, divided by chip-specific PNA calibration factor; Chip 2.
In experiment [9] the target is IL-1b (human) (UniProt P01584). The experiment in a line: sandwich microarray in flow cell, chemiluminescence, cytokine 1 ng/ml, divided by chip-specific PNA calibration factor; Chip 3.
Experiment [10] addresses IL-1b (human) (UniProt P01584). The experiment in a line: sandwich microarray in flow cell, chemiluminescence, cytokine 1 ng/ml, divided by chip-specific PNA calibration factor; Chip 4.
Experiment [11] concerns the target IL-1b (human) (UniProt P01584). Kind of experiment: sandwich microarray in flow cell, chemiluminescence, cytokine 1 ng/ml, divided by chip-specific PNA calibration factor; Chip 5.
The target of experiment [12] is IL-1b (human) (UniProt P01584). Kind of experiment: sandwich microarray in flow cell, chemiluminescence, cytokine 1 ng/ml, divided by chip-specific PNA calibration factor; AVG of Chips 1-5.
The target of experiment [13] is IL-8 (human) (UniProt P10145). Kind of experiment: sandwich microarray in flow cell, chemiluminescence, cytokine 1 ng/ml; Chip 1.
Sequence of UniProt P10145 (P10145 28-99 limits assumed): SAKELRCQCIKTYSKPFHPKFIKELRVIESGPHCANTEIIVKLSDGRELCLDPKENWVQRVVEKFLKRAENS
The target of experiment [14] is IL-8 (human) (UniProt P10145). The experiment in a line: sandwich microarray in flow cell, chemiluminescence, cytokine 1 ng/ml; Chip 2.
The target in experiment [15] is IL-8 (human) (UniProt P10145). Kind of experiment: sandwich microarray in flow cell, chemiluminescence, cytokine 1 ng/ml; Chip 3.
Experiment [16] deals with IL-8 (human) (UniProt P10145). Kind of experiment: sandwich microarray in flow cell, chemiluminescence, cytokine 1 ng/ml; Chip 4.
Experiment [17] deals with IL-8 (human) (UniProt P10145). Kind of experiment: sandwich microarray in flow cell, chemiluminescence, cytokine 1 ng/ml; Chip 5.
Experiment [18] addresses IL-8 (human) (UniProt P10145). Kind of experiment: sandwich microarray in flow cell, chemiluminescence, cytokine 1 ng/ml; AVG of Chips 1-5.
Experiment [19] deals with IL-8 (human) (UniProt P10145). Kind of experiment: sandwich microarray in flow cell, chemiluminescence, cytokine 1 ng/ml, divided by chip-specific PNA calibration factor; Chip 1.
Experiment [20] has as its target IL-8 (human) (UniProt P10145). The experiment in a line: sandwich microarray in flow cell, chemiluminescence, cytokine 1 ng/ml, divided by chip-specific PNA calibration factor; Chip 2.
Experiment [21] concerns the target IL-8 (human) (UniProt P10145). The experiment in a line: sandwich microarray in flow cell, chemiluminescence, cytokine 1 ng/ml, divided by chip-specific PNA calibration factor; Chip 3.
For experiment [22], the target named is IL-8 (human) (UniProt P10145). The experiment in a line: sandwich microarray in flow cell, chemiluminescence, cytokine 1 ng/ml, divided by chip-specific PNA calibration factor; Chip 4.
The target of experiment [23] is IL-8 (human) (UniProt P10145). The experiment in a line: sandwich microarray in flow cell, chemiluminescence, cytokine 1 ng/ml, divided by chip-specific PNA calibration factor; Chip 5.
For experiment [24], the target named is IL-8 (human) (UniProt P10145). Kind of experiment: sandwich microarray in flow cell, chemiluminescence, cytokine 1 ng/ml, divided by chip-specific PNA calibration factor; AVG of Chips 1-5.
The target in experiment [25] is IL-10 (human) (UniProt P22301). The experiment in a line: sandwich microarray in flow cell, chemiluminescence, cytokine 1 ng/ml; Chip 1.
Sequence of UniProt P22301 (P22301 19-178 limits assumed): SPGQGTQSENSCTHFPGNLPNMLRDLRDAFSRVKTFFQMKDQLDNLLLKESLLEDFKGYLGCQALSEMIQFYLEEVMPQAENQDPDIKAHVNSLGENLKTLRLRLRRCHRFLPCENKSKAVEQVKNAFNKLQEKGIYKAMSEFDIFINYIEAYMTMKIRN
For experiment [26], the target named is IL-10 (human) (UniProt P22301). The experiment in a line: sandwich microarray in flow cell, chemiluminescence, cytokine 1 ng/ml; Chip 2.
For experiment [27], the target named is IL-10 (human) (UniProt P22301). Kind of experiment: sandwich microarray in flow cell, chemiluminescence, cytokine 1 ng/ml; Chip 3.
Experiment [28] deals with IL-10 (human) (UniProt P22301). The experiment in a line: sandwich microarray in flow cell, chemiluminescence, cytokine 1 ng/ml; Chip 4.
The target in experiment [29] is IL-10 (human) (UniProt P22301). The experiment in a line: sandwich microarray in flow cell, chemiluminescence, cytokine 1 ng/ml; Chip 5.
The target in experiment [30] is IL-10 (human) (UniProt P22301). The experiment in a line: sandwich microarray in flow cell, chemiluminescence, cytokine 1 ng/ml; AVG of Chips 1-5.
The target in experiment [31] is IL-10 (human) (UniProt P22301). The experiment in a line: sandwich microarray in flow cell, chemiluminescence, cytokine 1 ng/ml, divided by chip-specific PNA calibration factor; Chip 1.
The target in experiment [32] is IL-10 (human) (UniProt P22301). Kind of experiment: sandwich microarray in flow cell, chemiluminescence, cytokine 1 ng/ml, divided by chip-specific PNA calibration factor; Chip 2.
Experiment [33] has as its target IL-10 (human) (UniProt P22301). Kind of experiment: sandwich microarray in flow cell, chemiluminescence, cytokine 1 ng/ml, divided by chip-specific PNA calibration factor; Chip 3.
Experiment [34] addresses IL-10 (human) (UniProt P22301). Kind of experiment: sandwich microarray in flow cell, chemiluminescence, cytokine 1 ng/ml, divided by chip-specific PNA calibration factor; Chip 4.
For experiment [35], the target named is IL-10 (human) (UniProt P22301). The experiment in a line: sandwich microarray in flow cell, chemiluminescence, cytokine 1 ng/ml, divided by chip-specific PNA calibration factor; Chip 5.
For experiment [36], the target named is IL-10 (human) (UniProt P22301). The experiment in a line: sandwich microarray in flow cell, chemiluminescence, cytokine 1 ng/ml, divided by chip-specific PNA calibration factor; AVG of Chips 1-5.
For experiment [37], the target named is IL-12p40 (human) (UniProt P29460). The experiment in a line: sandwich microarray in flow cell, chemiluminescence, cytokine 1 ng/ml; Chip 1.
Sequence of UniProt P29460 (P29460 23-328 limits assumed): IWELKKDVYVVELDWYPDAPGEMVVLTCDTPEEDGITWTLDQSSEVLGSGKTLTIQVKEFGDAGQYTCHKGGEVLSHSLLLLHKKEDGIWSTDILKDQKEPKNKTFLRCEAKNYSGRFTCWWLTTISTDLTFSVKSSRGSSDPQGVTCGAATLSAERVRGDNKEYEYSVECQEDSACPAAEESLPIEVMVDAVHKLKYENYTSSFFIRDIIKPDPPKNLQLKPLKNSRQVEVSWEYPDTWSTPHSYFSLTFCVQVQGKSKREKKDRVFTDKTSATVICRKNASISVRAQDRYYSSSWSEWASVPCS
For experiment [38] the target is unchanged. Kind of experiment: sandwich microarray in flow cell, chemiluminescence, cytokine 1 ng/ml; Chip 2.
Experiment [39] shares this target. The experiment in a line: sandwich microarray in flow cell, chemiluminescence, cytokine 1 ng/ml; Chip 3.
For experiment [40] the target is unchanged. Kind of experiment: sandwich microarray in flow cell, chemiluminescence, cytokine 1 ng/ml; Chip 4.
For experiment [41] the target is unchanged. Kind of experiment: sandwich microarray in flow cell, chemiluminescence, cytokine 1 ng/ml; Chip 5.
For experiment [42] the target is unchanged. The experiment in a line: sandwich microarray in flow cell, chemiluminescence, cytokine 1 ng/ml; AVG of Chips 1-5.
Experiment [43] has the same target. The experiment in a line: sandwich microarray in flow cell, chemiluminescence, cytokine 1 ng/ml, divided by chip-specific PNA calibration factor; Chip 1.
For experiment [44] the target is unchanged. The experiment in a line: sandwich microarray in flow cell, chemiluminescence, cytokine 1 ng/ml, divided by chip-specific PNA calibration factor; Chip 2.
Experiment [45] has the same target. The experiment in a line: sandwich microarray in flow cell, chemiluminescence, cytokine 1 ng/ml, divided by chip-specific PNA calibration factor; Chip 3.
Experiment [46] has the same target. The experiment in a line: sandwich microarray in flow cell, chemiluminescence, cytokine 1 ng/ml, divided by chip-specific PNA calibration factor; Chip 4.
Experiment [47] shares this target. The experiment in a line: sandwich microarray in flow cell, chemiluminescence, cytokine 1 ng/ml, divided by chip-specific PNA calibration factor; Chip 5.
For experiment [48] the target is unchanged. The experiment in a line: sandwich microarray in flow cell, chemiluminescence, cytokine 1 ng/ml, divided by chip-specific PNA calibration factor; AVG of Chips 1-5.

Sequence of UniProt P01584 (P01584 117-269 limits assumed): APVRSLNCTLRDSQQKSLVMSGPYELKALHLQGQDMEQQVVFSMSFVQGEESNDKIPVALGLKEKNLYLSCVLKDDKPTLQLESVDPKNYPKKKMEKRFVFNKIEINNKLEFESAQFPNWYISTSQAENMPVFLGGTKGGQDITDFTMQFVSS

With “MAb IL-1b (monoclonal capture antibody of the anti-human IL-1b OptEIA matched pair, BD Biosciences-Pharmingen)”, the chemiluminescent spot intensity (Un-Calibrated Data) with IL-1b (human) [1] amounted to 297; with IL-1b (human) [2], 150; with IL-1b (human) [3], 486; in the experiment with IL-1b (human) [4] it was 221; in the experiment with IL-1b (human) [5], 131; with IL-1b (human) [6] it was 257. For the same substance, the chemiluminescent spot intensity (Calibrated Data) amounted to 498 with IL-1b (human) [7]; 513 with IL-1b (human) [8]; 486 with IL-1b (human) [9]; 485 with IL-1b (human) [10]; 404 with IL-1b (human) [11]; 477 with IL-1b (human) [12].

On to “MAb IL-8 (monoclonal capture antibody of the anti-human IL-8 OptEIA matched pair, BD Biosciences-Pharmingen)”, for which the chemiluminescent spot intensity (Un-Calibrated Data) with IL-8 (human) [13] came to 1760; in the experiment with IL-8 (human) [14] it was 804; with IL-8 (human) [15], 3100; with IL-8 (human) [16] it was 1320; with IL-8 (human) [17], 905; with IL-8 (human) [18], 1580. Besides, the chemiluminescent spot intensity (Calibrated Data) came to 2960 with IL-8 (human) [19]; 2750 in the experiment with IL-8 (human) [20]; 3100 with IL-8 (human) [21]; 2900 with IL-8 (human) [22]; 2790 with IL-8 (human) [23]; 2900 with IL-8 (human) [24].

Consider “MAb IL-10 (monoclonal capture antibody of the anti-human IL-10 OptEIA matched pair, BD Biosciences-Pharmingen)”, for which the chemiluminescent spot intensity (Un-Calibrated Data) with IL-10 (human) [25] turned out to be 788; in the experiment with IL-10 (human) [26] it was 389; with IL-10 (human) [27] it was 1360; in the experiment with IL-10 (human) [28] it was 508; with IL-10 (human) [29], 414; with IL-10 (human) [30], 691. Further, the chemiluminescent spot intensity (Calibrated Data) is 1320 in the experiment with IL-10 (human) [31]; 1330 in the experiment with IL-10 (human) [32]; 1360 with IL-10 (human) [33]; 1120 with IL-10 (human) [34]; 1280 with IL-10 (human) [35]; 1280 in the experiment with IL-10 (human) [36].

As to “MAb IL-12p40 (monoclonal capture antibody of the anti-human IL-12p40 OptEIA matched pair, BD Biosciences-Pharmingen)”, the chemiluminescent spot intensity (Un-Calibrated Data) in the experiment with IL-12p40 (human) [37] came to 179; with IL-12p40 (human) [38], 79; in the experiment with IL-12p40 (human) [39] it was 312; in the experiment with IL-12p40 (human) [40], 125; in the experiment with IL-12p40 (human) [41], 87; with IL-12p40 (human) [42] it was 156. Moreover, the chemiluminescent spot intensity (Calibrated Data) was 300 with IL-12p40 (human) [43]; 270 with IL-12p40 (human) [44]; 312 with IL-12p40 (human) [45]; 275 in the experiment with IL-12p40 (human) [46]; 268 in the experiment with IL-12p40 (human) [47]; 285 with IL-12p40 (human) [48].
